Experiments:
Type in all cases: physicochemical
[1] = Rheological properties (stiffness, storage modulus, viscosity) at selected pH levels
Method: Rheological properties of certain peptide compositions were observed before and after adjusting their pH levels to 3.4 (RADA16 (SEQ ID NO:1) and KLD12 (SEQ ID NO:2)) or 3.7 (IEIK13 (SEQ ID NO:3)). Rheological properties of peptides were evaluated using a rheometer (AR500, TA Instruments) with 40 mm plates. Specifically, a peptide composition (700 μL) was placed on the rheometer plate and excess composition was gently removed by Kimwipes. Measurements were performed after 2 minutes of relaxation time at 37° C. RADA16 (SEQ ID NO:1), KLD12 (SEQ ID NO:2) and IEIK13 (SEQ ID NO:3) compositions at elevated pH were stiffer than those at 2.5 (RADA16 (SEQ ID NO:1)), 2.0 (KLD12 (SEQ ID NO:2)), and 2.1 (IEIK13 (SEQ ID NO:3)).
Storage modulus of certain peptide compositions at selected pH levels were evaluated using a rheometer (DHR-1, TA Instruments) with 20 mm plates. […] Determined storage moduli for tested peptide compositions are shown in FIG. 18 for RADA16 (SEQ ID NO:1) and FIG. 19 for IEIK13 (SEQ ID NO:3), respectively.
Viscosities of 1% IEIK13 (SEQ ID NO:3) compositions at selected pH levels were evaluated using a rheometer (DHR-1, TA Instruments) with 20 mm plates.

[2] = Time sweep test of gelation after adding DMEM or saline buffer
Method: FIG. 25 includes 1.5% IEIK13 (SEQ ID NO:3) data at pH 2.3, 2.6, 2.9 and 3.2. Time sweep tests were performed at 1 rad/sec and at 1 Pa with 20 mm plates and 500 μm gap distance. During time sweep tests, DMEM was added into the chamber surrounding the measuring plates to soak the peptides at time=0.
Time sweep tests were performed at 1 rad/sec and at 1 Pa with 20 mm plates and 500 μm gap distance. During time sweep tests, the saline buffer was added into the chamber surrounding the measuring plates to soak the peptides at time=0.

[3] = Stiffness and reversibility of RADA16 compositions with salts
Method: FIGS. 41A-41D depict the protocol used to follow peptide dissolution and to assess effects of particular anions and/or cations, and/or their concentration, on certain RADA16 (SEQ ID NO:1) compositions. As shown, peptide powder in a vial was dissolved in deionized water with vortexing and sonication. The particular peptide composition utilized in this Example was a 1% composition of RADA16 (SEQ ID NO:1) that was mixed at a 1:1 ratio with a 2× salt solution to obtain a final concentration of 0.5% RADA16 (SEQ ID NO:1) and the desired molar concentration of salt.
The protocol depicted in FIGS. 41A-41D was followed to analyze stiffness of peptide compositions containing either 2.5% RADA16 (SEQ ID NO:1) and no added salt or 2.5% RADA16 (SEQ ID NO:1) and 0.125 M CaCl2. Results are shown in FIG. 44, which provides a basic understanding of the viscoelastic properties of the resulting compositions.
The protocol depicted in FIGS. 41A-41D was followed to prepare solutions of 0.5% RADA16 mixed with 0.125, 0.25, or 0.5 M CaCl2 were prepared. The compositions were subjected to mechanical stress through vortexing and sonication, so that their structure was thoroughly disrupted (e.g., randomized). Disrupted compositions were then placed at room temperature for 48 hours to allow self-assembly to take place.

[4] = Mixing of RADA16 with DMEM and centrifugation
Method: When the mixture was centrifuged at 2500 rpm for 5 min, phase separation of cloudy RADA16 (SEQ ID NO:1) precipitated from the mixture. In this case, the peptide assemblies (i.e. initially were formed via hydrophobic interactions) were likely broken down during the mixing process. Attractive charge-charge interactions were dominant over hydrophobic interactions, which induce formation of random intra- and inter-molecular aggregates. The phase separation is illustrated in FIG. 7.

Arg-Ala-Asp-Ala-Arg-Ala-Asp-Ala-Arg-Ala-Asp-Ala-Arg-Ala-Asp-Ala [RADA16]
Storage modulus as a function of pH ([1]; DHR-1, 20 mm plates, 2.5% RADA16, 1.5% IEIK13 (FIGS. 18, 19)): increased with pH increase up to 3.4 | Stiffness at elevated pH versus unadjusted pH ([1]; pH 3.4 (RADA16, KLD12) or 3.7 (IEIK13) versus 2.5 (RADA16), 2.0 (KLD12), 2.1 (IEIK13), stress sweep): stiffer | Gelation on exposure to saline buffer ([2]; saline buffer, 0.15 M NaCl): no or negligible gelation | Storage modulus response (gelation kinetics) ([2]; with pH adjustment, time sweep with DMEM (FIGS. 24 and 25)): immediate storage modulus increase | Time without storage modulus increase ([2]; without pH adjustment (pH 2.2), time sweep with DMEM (FIG. 24)): 13 s | Reversibility after mechanical perturbation ([3]; 0.5% RADA16, 0.125 or 0.25 M CaCl2, vortexing and sonication, 48 hours at room temperature): reversibility can be maintained | Stiffness after disruption ([3]; 0.5% RADA16, 0.5 M CaCl2, vortexing and sonication, 48 hours at room temperature): dramatically less stiffness | Stiffness with salt versus no added salt ([3]; 2.5% RADA16 and 0.125 M CaCl2 versus 2.5% RADA16): noticeable increase in stiffness | Appearance after mixing with DMEM ([4]; 0.5 mL of DMEM mixed with 0.5 mL of 2% RADA16): cloudy and runny emulsions | Phase behaviour after centrifugation of the DMEM mixture ([4]; centrifuged at 2500 rpm for 5 min): precipitated
